Experimental findings from patent publication US20040248785A1 are described below.

Assay [1] concerns the target low density lipoprotein receptor-related protein / alpha2-macroglobulin receptor (LRP), isolated from human placenta (human) (UniProt Q07954). The assay is described as follows: homologous displacement of 125I-fVIII (1 nM) by unlabeled fVIII on LRP-coated wells, single class of sites, LIGAND.
Assay [2] has the same target. The assay is described as follows: homologous displacement on LRP-coated wells.
Assay [3] has the same target. Description: solid-phase homologous ligand displacement: 125I-fVIII (1 nM) on LRP-coated wells, 1 h at 37 C, rising unlabeled fVIII.

In general, Kd refers to the equilibrium constant for the complex coming apart. Low values mean tighter binding, high ones weaker binding.

Chain of low density lipoprotein receptor-related protein / alpha2-macroglobulin receptor (LRP), isolated from human placenta (human) (Q07954 20-4544): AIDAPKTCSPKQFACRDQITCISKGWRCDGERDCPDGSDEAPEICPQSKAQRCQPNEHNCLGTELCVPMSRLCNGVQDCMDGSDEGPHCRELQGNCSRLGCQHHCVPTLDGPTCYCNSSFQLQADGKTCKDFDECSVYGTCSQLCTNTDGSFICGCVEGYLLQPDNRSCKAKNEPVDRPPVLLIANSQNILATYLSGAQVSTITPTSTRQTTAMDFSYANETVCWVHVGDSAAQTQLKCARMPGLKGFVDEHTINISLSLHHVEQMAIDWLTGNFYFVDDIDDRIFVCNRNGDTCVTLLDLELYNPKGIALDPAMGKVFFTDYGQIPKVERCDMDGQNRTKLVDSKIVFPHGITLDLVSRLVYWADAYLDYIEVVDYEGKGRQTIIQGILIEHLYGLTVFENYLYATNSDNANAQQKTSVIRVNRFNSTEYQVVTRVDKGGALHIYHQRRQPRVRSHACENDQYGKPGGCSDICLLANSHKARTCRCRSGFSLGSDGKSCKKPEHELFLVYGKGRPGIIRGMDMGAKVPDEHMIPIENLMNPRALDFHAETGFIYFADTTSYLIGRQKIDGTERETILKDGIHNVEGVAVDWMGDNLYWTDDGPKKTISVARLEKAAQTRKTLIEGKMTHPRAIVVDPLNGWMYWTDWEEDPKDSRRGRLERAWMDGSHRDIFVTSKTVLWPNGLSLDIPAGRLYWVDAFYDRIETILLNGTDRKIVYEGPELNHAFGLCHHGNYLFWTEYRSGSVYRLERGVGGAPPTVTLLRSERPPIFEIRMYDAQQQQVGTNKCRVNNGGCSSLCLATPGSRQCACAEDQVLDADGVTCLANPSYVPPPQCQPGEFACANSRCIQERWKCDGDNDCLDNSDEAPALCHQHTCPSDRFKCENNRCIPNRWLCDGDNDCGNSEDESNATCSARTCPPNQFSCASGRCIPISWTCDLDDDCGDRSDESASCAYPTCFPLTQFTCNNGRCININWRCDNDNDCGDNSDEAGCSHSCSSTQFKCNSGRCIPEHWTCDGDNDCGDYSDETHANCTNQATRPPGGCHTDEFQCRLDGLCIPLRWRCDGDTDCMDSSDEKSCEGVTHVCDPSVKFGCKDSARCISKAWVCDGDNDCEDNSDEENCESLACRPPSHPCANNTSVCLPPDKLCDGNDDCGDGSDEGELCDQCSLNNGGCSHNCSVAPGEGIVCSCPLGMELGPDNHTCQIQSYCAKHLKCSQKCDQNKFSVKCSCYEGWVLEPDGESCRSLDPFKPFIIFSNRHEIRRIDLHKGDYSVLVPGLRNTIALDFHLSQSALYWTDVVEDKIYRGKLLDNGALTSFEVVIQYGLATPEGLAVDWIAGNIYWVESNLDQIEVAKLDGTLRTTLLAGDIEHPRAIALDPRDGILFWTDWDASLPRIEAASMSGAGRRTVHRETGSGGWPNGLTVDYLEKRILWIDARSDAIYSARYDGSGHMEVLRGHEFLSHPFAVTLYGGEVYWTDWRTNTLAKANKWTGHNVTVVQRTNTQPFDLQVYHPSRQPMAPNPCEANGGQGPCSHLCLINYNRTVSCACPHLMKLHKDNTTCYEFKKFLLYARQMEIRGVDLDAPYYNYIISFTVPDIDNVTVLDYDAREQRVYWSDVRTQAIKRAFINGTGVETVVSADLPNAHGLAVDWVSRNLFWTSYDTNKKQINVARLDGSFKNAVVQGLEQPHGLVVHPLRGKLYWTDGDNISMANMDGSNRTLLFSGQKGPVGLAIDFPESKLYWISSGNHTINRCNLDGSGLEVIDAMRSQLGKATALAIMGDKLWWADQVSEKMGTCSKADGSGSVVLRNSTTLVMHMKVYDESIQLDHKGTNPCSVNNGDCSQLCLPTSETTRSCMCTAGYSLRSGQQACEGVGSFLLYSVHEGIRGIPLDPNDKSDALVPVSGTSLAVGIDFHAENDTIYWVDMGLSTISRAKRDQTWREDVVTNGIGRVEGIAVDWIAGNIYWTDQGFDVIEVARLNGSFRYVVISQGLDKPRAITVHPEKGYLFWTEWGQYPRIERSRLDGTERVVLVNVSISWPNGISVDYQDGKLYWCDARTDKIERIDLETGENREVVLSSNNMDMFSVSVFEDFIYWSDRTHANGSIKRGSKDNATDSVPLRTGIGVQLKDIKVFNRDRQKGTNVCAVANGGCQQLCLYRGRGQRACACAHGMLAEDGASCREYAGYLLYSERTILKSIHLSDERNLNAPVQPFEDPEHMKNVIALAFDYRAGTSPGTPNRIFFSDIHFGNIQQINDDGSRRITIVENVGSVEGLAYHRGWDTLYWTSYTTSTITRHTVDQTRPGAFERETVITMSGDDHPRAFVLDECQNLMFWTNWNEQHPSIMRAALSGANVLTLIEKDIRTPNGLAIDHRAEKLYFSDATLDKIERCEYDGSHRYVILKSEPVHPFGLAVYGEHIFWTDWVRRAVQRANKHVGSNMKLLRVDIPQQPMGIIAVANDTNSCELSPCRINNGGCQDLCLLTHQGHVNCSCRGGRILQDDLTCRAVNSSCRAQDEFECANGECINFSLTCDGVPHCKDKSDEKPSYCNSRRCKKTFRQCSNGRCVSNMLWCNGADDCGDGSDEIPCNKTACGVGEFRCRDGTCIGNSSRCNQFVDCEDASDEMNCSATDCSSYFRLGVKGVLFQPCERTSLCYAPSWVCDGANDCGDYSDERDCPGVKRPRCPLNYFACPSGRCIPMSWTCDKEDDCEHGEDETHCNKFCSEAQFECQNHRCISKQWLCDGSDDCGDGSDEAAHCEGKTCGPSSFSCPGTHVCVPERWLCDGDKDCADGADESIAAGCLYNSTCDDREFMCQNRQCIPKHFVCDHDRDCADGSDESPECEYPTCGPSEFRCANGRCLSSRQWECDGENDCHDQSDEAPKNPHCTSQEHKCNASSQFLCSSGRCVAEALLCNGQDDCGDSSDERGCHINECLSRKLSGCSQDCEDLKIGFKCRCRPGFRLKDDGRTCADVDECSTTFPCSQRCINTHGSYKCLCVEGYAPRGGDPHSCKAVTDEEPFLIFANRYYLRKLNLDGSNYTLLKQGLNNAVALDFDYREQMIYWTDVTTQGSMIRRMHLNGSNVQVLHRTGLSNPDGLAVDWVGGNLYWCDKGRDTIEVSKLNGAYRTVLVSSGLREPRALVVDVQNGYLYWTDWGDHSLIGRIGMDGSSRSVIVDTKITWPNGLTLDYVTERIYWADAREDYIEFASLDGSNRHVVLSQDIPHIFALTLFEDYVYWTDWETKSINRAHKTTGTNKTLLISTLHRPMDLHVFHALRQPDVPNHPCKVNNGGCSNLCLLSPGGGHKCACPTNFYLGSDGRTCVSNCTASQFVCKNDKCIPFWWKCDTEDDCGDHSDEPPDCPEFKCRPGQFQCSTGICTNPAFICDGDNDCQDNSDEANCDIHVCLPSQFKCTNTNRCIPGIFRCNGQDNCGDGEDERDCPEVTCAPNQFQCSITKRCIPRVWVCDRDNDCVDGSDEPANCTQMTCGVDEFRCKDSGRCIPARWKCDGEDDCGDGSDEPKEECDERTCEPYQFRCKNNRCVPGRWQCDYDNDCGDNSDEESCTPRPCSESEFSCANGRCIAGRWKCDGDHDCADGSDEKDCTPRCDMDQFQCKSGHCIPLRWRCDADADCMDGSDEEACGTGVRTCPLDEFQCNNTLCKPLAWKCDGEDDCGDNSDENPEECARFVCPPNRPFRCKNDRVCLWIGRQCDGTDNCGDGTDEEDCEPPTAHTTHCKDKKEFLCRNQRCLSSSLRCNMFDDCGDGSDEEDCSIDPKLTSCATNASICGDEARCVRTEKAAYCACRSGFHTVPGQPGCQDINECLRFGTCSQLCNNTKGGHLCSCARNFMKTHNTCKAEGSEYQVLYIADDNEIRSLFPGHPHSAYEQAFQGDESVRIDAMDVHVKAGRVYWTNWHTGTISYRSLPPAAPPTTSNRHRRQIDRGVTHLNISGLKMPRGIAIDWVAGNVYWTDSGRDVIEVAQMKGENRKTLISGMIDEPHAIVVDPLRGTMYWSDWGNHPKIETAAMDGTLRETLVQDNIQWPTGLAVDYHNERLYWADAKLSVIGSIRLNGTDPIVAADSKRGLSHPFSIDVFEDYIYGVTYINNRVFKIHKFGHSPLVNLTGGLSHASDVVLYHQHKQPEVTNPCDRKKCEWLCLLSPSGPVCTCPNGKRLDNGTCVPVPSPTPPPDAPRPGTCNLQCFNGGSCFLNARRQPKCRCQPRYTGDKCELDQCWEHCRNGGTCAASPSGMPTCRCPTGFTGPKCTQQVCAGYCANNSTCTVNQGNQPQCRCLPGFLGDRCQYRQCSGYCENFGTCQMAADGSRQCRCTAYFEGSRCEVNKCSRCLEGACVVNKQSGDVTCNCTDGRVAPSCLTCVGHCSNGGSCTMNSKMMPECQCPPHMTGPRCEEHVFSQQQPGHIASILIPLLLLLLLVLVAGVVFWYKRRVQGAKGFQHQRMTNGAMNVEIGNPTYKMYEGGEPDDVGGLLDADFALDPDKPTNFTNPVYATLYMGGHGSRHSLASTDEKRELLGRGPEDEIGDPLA

“factor VIII (fVIII), purified from therapeutic concentrates of Method M, American Red Cross, P00451 20-1667; P00451 1668-2351” showed a Kd in assay [1] of 116 nM. For the same substance, the percent of 125I-fVIII binding competed by an excess of unlabeled fVIII in assay [2] is above 90%. The IC50 (read off the curve) in assay [3] came out at 100 nM.
